Test results as given in patent US9040054B2.

Target: serum IgE of birch pollen allergic (Bet v 1 allergic) patients
Test: ELISA inhibition: BM4 as inhibitor in serial dilutions, Bet v 1a immobilized at 200 ng/well, 5 sera

fold reduced patients' IgE binding capacity compared to Bet v 1a: 100 to 1000 fold
B1: BM4 (protein)
chain: GVFNYETETTSVIPAARLFKAFILDGDNLFPKVAPQAISSVENIEGNGGPGTIKKISFPEGFPFKYVKDRVDEVDHTNFKYNYSVIEGGPIGDTLEKISNEIKIVATPSGSTIKSISNKYHTKGDHEVKAEQVKASKEMGETLLRAVESYLLAHSDAYN
